*1 amine or outer side, *2 acyl side, *3 side chain or, on linkers, in order; H or OH if unused. Side-chain parts run from the residue outwards. The star is where a group is joined. C18 diacid = O=C(O)CCCCCCCCCCCCCCCCC(=O)*; γGlu = O=C(O)[C@H](CCC(=O)[*:2])N[*:1]; Isovaleryl = CC(C)CC(=O)*; Ahx = NCCCCCC(=O)O
T1: human NPY2 receptor (human, UniProt P49146 1-381)
T1 construct: whole, on cells; also called hNPY2-R; hNPY2R
T1 sequence (looked up): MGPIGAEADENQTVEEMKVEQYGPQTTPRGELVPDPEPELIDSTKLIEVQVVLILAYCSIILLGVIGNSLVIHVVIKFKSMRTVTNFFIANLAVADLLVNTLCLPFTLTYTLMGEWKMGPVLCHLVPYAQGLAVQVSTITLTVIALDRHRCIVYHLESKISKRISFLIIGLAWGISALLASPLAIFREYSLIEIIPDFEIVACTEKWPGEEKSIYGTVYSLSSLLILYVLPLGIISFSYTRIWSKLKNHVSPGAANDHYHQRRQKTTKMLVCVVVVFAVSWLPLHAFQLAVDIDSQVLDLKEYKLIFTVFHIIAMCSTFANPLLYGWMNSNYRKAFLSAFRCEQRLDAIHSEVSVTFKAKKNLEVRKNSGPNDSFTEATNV


Target: T1, human NPY2 receptor
Assay: RLB: displacement of 125I-PYY(1-36) from hNPY2R membranes

Row | Ki | Binder
1 | 3.37 nM | Isovaleryl-APEK([Ahx-γGlu-C18 diacid])PEEDASPEELQRYYVELRHYYNWLTRQRY-NH2 (SMILES CC(C)CC(=O)N[C@@H](C)C(=O)N1CCC[C@H]1C(=O)N[C@@H](CCC(=O)O)C(=O)N[C@@H](CCCCNC(=O)CCCCCNC(=O)CC[C@H](NC(=O)CCCCCCCCCCCCCCCCC(=O)O)C(=O)O)C(=O)N1CCC[C@H]1C(=O)N[C@@H](CCC(=O)O)C(=O)N[C@@H](CCC(=O)O)C(=O)N[C@@H](CC(=O)O)C(=O)N[C@@H](C)C(=O)N[C@@H](CO)C(=O)N1CCC[C@H]1C(=O)N[C@@H](CCC(=O)O)C(=O)N[C@@H](CCC(=O)O)C(=O)N[C@@H](CC(C)C)C(=O)N[C@@H](CCC(N)=O)C(=O)N[C@@H](CCCNC(=N)N)C(=O)N[C@@H](Cc1ccc(O)cc1)C(=O)N[C@@H](Cc1ccc(O)cc1)C(=O)N[C@H](C(=O)N[C@@H](CCC(=O)O)C(=O)N[C@@H](CC(C)C)C(=O)N[C@@H](CCCNC(=N)N)C(=O)N[C@@H](Cc1c[nH]cn1)C(=O)N[C@@H](Cc1ccc(O)cc1)C(=O)N[C@@H](Cc1ccc(O)cc1)C(=O)N[C@@H](CC(N)=O)C(=O)N[C@@H](Cc1c[nH]c2ccccc12)C(=O)N[C@@H](CC(C)C)C(=O)N[C@H](C(=O)N[C@@H](CCCNC(=N)N)C(=O)N[C@@H](CCC(N)=O)C(=O)N[C@@H](CCCNC(=N)N)C(=O)N[C@@H](Cc1ccc(O)cc1)C(N)=O)[C@@H](C)O)C(C)C) [Compound 125]
2 | 4.42 nM | Isovaleryl-APEK([Ahx-γGlu-C18 diacid])PEEDAEPEELQRYYVSLRHYYNWLTRQRY-NH2 (SMILES CC(C)CC(=O)N[C@@H](C)C(=O)N1CCC[C@H]1C(=O)N[C@@H](CCC(=O)O)C(=O)N[C@@H](CCCCNC(=O)CCCCCNC(=O)CC[C@H](NC(=O)CCCCCCCCCCCCCCCCC(=O)O)C(=O)O)C(=O)N1CCC[C@H]1C(=O)N[C@@H](CCC(=O)O)C(=O)N[C@@H](CCC(=O)O)C(=O)N[C@@H](CC(=O)O)C(=O)N[C@@H](C)C(=O)N[C@@H](CCC(=O)O)C(=O)N1CCC[C@H]1C(=O)N[C@@H](CCC(=O)O)C(=O)N[C@@H](CCC(=O)O)C(=O)N[C@@H](CC(C)C)C(=O)N[C@@H](CCC(N)=O)C(=O)N[C@@H](CCCNC(=N)N)C(=O)N[C@@H](Cc1ccc(O)cc1)C(=O)N[C@@H](Cc1ccc(O)cc1)C(=O)N[C@H](C(=O)N[C@@H](CO)C(=O)N[C@@H](CC(C)C)C(=O)N[C@@H](CCCNC(=N)N)C(=O)N[C@@H](Cc1c[nH]cn1)C(=O)N[C@@H](Cc1ccc(O)cc1)C(=O)N[C@@H](Cc1ccc(O)cc1)C(=O)N[C@@H](CC(N)=O)C(=O)N[C@@H](Cc1c[nH]c2ccccc12)C(=O)N[C@@H](CC(C)C)C(=O)N[C@H](C(=O)N[C@@H](CCCNC(=N)N)C(=O)N[C@@H](CCC(N)=O)C(=O)N[C@@H](CCCNC(=N)N)C(=O)N[C@@H](Cc1ccc(O)cc1)C(N)=O)[C@@H](C)O)C(C)C) [Compound 126]
